# Laboratory results: the supplement of paper PMC9112550, “Optimization of the antimicrobial peptide Bac7 by deep mutational scanning” (BMC Biology, 2022)
# Test system: Escherichia coli TOP10
# Test: shrunken log2 fold change of peptide-encoding DNA abundance (4.5 h post-induction vs induction); higher = less antimicrobial activity (less host growth inhibition)
# Details: time post-induction: 4.5 h; library: site-saturation at positions 5, 18, 19, 20
# 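Also: peptides expressed intracellularly from a pBAD plasmid library in pooled LB shake-flask culture, induced with 0.3% L-arabinose, DNA abundance read by NGS, three biological replicates, DESeq2 with apeglm shrinkage.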
row,Sequence,shrunken log2 fold change
1,RRIRQRPPRLPRPRPRPIHVPRP,-0.15
2,RRIRTRPPRLPRPRPRPKQGPRP,0.0588
3,RRIRNRPPRLPRPRPRPTFHPRP,-0.422
4,RRIRLRPPRLPRPRPRPAWRPRP,0.454
5,RRIRSRPPRLPRPRPRPCCEPRP,-0.22
6,RRIRARPPRLPRPRPRPCGKPRP,0.659
7,RRIRQRPPRLPRPRPRPSIRPRP,-0.523
8,RRIRKRPPRLPRPRPRPNDVPRP,0.117
9,RRIRHRPPRLPRPRPRPPHFPRP,0.297
10,RRIRPRPPRLPRPRPRPDTGPRP,0.128
11,RRIRKRPPRLPRPRPRPWCLPRP,-0.503
12,RRIRMRPPRLPRPRPRPDVGPRP,0.0278
13,RRIRARPPRLPRPRPRPRHIPRP,-0.177
14,RRIRSRPPRLPRPRPRPEQIPRP,0.157
15,RRIRTRPPRLPRPRPRPCMYPRP,-0.183
16,RRIRQRPPRLPRPRPRPEESPRP,0.0313
17,RRIRIRPPRLPRPRPRPTALPRP,0.0424
18,RRIRCRPPRLPRPRPRPITIPRP,-0.261
19,RRIRNRPPRLPRPRPRPYKVPRP,-0.324
20,RRIRGRPPRLPRPRPRPAYSPRP,-0.0128
21,RRIRKRPPRLPRPRPRPAQVPRP,0.296
22,RRIRTRPPRLPRPRPRPNRMPRP,-0.331

row,Sequence,shrunken log2 fold change
1,RRIRARPPRLPRPRPRPANWPRP,0.215
2,RRIRKRPPRLPRPRPRPVLLPRP,0.122
3,RRIRQRPPRLPRPRPRPAGYPRP,-0.101
4,RRIRYRPPRLPRPRPRPYCGPRP,-0.456
5,RRIRIRPPRLPRPRPRPMQNPRP,0.112
6,RRIRQRPPRLPRPRPRPFNFPRP,-0.16
7,RRIRPRPPRLPRPRPRPPLVPRP,0.389
8,RRIRARPPRLPRPRPRPDTEPRP,0.00829
9,RRIRTRPPRLPRPRPRPKFGPRP,-0.00436
10,RRIRERPPRLPRPRPRPYTHPRP,-0.623
11,RRIRPRPPRLPRPRPRPNNFPRP,-0.364
12,RRIRTRPPRLPRPRPRPKIGPRP,-0.0689
13,RRIRPRPPRLPRPRPRPSRSPRP,0.0328
14,RRIRWRPPRLPRPRPRPEYRPRP,0.0624
15,RRIRDRPPRLPRPRPRPCTDPRP,-0.00136
16,RRIRNRPPRLPRPRPRPCAEPRP,-0.169
17,RRIRPRPPRLPRPRPRPFRTPRP,-0.362
18,RRIRARPPRLPRPRPRPRISPRP,0.0223
19,RRIRNRPPRLPRPRPRPWQTPRP,0.0295
20,RRIRSRPPRLPRPRPRPMKGPRP,-0.311
21,RRIRERPPRLPRPRPRPMWSPRP,-0.351
22,RRIRLRPPRLPRPRPRPSIYPRP,-0.801

row,Sequence,shrunken log2 fold change
1,RRIRARPPRLPRPRPRPWEEPRP,0.271
2,RRIRIRPPRLPRPRPRPNGTPRP,-0.201
3,RRIRKRPPRLPRPRPRPCYCPRP,-0.0227
4,RRIRSRPPRLPRPRPRPMTTPRP,0.572
5,RRIRQRPPRLPRPRPRPNTWPRP,-0.191
6,RRIRFRPPRLPRPRPRPTTRPRP,0.177
7,RRIRWRPPRLPRPRPRPHAYPRP,-0.349
8,RRIRTRPPRLPRPRPRPAGMPRP,0.0244
9,RRIRTRPPRLPRPRPRPHKKPRP,0.0809
10,RRIRNRPPRLPRPRPRPHSIPRP,-0.209
11,RRIRERPPRLPRPRPRPKVTPRP,-0.114
12,RRIRMRPPRLPRPRPRPVAFPRP,0.579
13,RRIRFRPPRLPRPRPRPRLFPRP,-0.0286
14,RRIRWRPPRLPRPRPRPNYQPRP,-0.365
15,RRIRERPPRLPRPRPRPLDAPRP,-0.17
16,RRIRDRPPRLPRPRPRPESSPRP,0.27
17,RRIRDRPPRLPRPRPRPSHTPRP,-0.436
18,RRIRHRPPRLPRPRPRPYMQPRP,-0.476
19,RRIRPRPPRLPRPRPRPFMFPRP,-0.361
20,RRIRRRPPRLPRPRPRPRLRPRP,0.848
21,RRIRDRPPRLPRPRPRPLPLPRP,-0.0937
22,RRIRIRPPRLPRPRPRPKLPPRP,0.0199

row,Sequence,shrunken log2 fold change
1,RRIRLRPPRLPRPRPRPWWWPRP,-0.00192
2,RRIRLRPPRLPRPRPRPVKEPRP,0.0114
3,RRIRVRPPRLPRPRPRPQANPRP,0.0748
4,RRIRFRPPRLPRPRPRPRCMPRP,-0.124
5,RRIRHRPPRLPRPRPRPPGKPRP,-0.155
6,RRIRIRPPRLPRPRPRPFPYPRP,-0.288
7,RRIRVRPPRLPRPRPRPEEEPRP,0.0136
8,RRIRGRPPRLPRPRPRPIVMPRP,-0.0978
9,RRIRERPPRLPRPRPRPIRQPRP,0.00357
10,RRIRYRPPRLPRPRPRPISFPRP,-0.00256
11,RRIRLRPPRLPRPRPRPGQMPRP,0.482
12,RRIRHRPPRLPRPRPRPDCMPRP,-0.291
13,RRIRWRPPRLPRPRPRPCQKPRP,-0.00776
14,RRIRTRPPRLPRPRPRPTQMPRP,0.451
15,RRIRCRPPRLPRPRPRPRSNPRP,-0.349
16,RRIRWRPPRLPRPRPRPYSVPRP,-0.55
17,RRIRIRPPRLPRPRPRPEYTPRP,0.0624
18,RRIRRRPPRLPRPRPRPLNIPRP,-0.651
19,RRIRHRPPRLPRPRPRPFNMPRP,-0.0933
20,RRIRFRPPRLPRPRPRPMSDPRP,-0.103
21,RRIRRRPPRLPRPRPRPIHYPRP,-0.359
22,RRIRGRPPRLPRPRPRPGCCPRP,1.2

row,Sequence,shrunken log2 fold change
1,RRIRMRPPRLPRPRPRPFGLPRP,-0.0107
2,RRIRSRPPRLPRPRPRPPWVPRP,0.433
3,RRIRNRPPRLPRPRPRPMPSPRP,0.0832
4,RRIRFRPPRLPRPRPRPAMFPRP,-0.292
5,RRIRQRPPRLPRPRPRPWMSPRP,-0.0167
6,RRIRFRPPRLPRPRPRPERLPRP,0.265
7,RRIRVRPPRLPRPRPRPYFAPRP,-0.246
8,RRIRGRPPRLPRPRPRPFTDPRP,0.143
9,RRIRIRPPRLPRPRPRPLDYPRP,-0.504
10,RRIRKRPPRLPRPRPRPIFGPRP,2.55
11,RRIRPRPPRLPRPRPRPTQQPRP,0.827
12,RRIRQRPPRLPRPRPRPFQFPRP,-0.252
13,RRIRIRPPRLPRPRPRPNMPPRP,-0.611
14,RRIRSRPPRLPRPRPRPYYMPRP,-0.622
15,RRIRNRPPRLPRPRPRPQDKPRP,0.0859
16,RRIRWRPPRLPRPRPRPYMFPRP,-0.194
17,RRIRNRPPRLPRPRPRPRGMPRP,0.151
18,RRIRIRPPRLPRPRPRPVGFPRP,-0.182
19,RRIRLRPPRLPRPRPRPHRVPRP,0.0399
20,RRIRPRPPRLPRPRPRPSRNPRP,0.0326
21,RRIRNRPPRLPRPRPRPFGYPRP,-0.377
